The results in this text go back to US20200087400A1 (EUREKA THERAPEUTICS, published 2020).

B1: PSA146/HLA-A*02:01-specific scFv phage clone #9 (scFv, V domains shown)
VH: QVQLVQSGAEVKKPGASVKVSCKASGYTFTSYGISWVRQAPGQGLEWMGWISAYNGNTNYAQKLQGRVTMTTDTSTSTAYMELRSLRSDDTAVYYCARSSQYYVWDSWGQGTLVTVSS
VL: QSVVTQPPSVSGAPGQRVTISCTGSSSNFGAGYDVHWYQQLPGTAPKLLIYGNSNRPSGVPDRFSGSKSGTSASLAITGLQAEDEADYYCQSYDSSLSGWVFGGGTKLTVLG
B2: PSA146/HLA-A*02:01-specific scFv phage clone #6 (scFv, V domains shown)
VH: EVQLVQSGAEVKKPGASVKVSCKASGYTFTGYYIHWVRQAPGQGLEWMGGFDPEDGETIYAQKFQDRVTMTADTSTDTAYMELSSLRSEDTAVYYCARYGFDYWGQGTLVTVSS
VL: QAVVTQEPSLTVSPGGTVTLTCASSTGAVTSGYYPNWFQLKPGQAPRALIYTTGKKHSWAPARFSGSLLGGKAALTLSGVQPEDEAEYYCLLYSGGVWVFGGGTKLTVLG
B3: PSA146/HLA-A*02:01-specific scFv phage clone #10 (scFv, V domains shown)
VH: QVQLVQSGAEVKKPGSSVKVSCKASGGTFSSYAISWVRQAPGQGLEWMGWINPNSGGTNYAQKFQGRVTMTRDTSISTAYMELSRLRSDDTAVYYCARWSYYYFQQFWSLDGWGQGTLVTVSS
VL: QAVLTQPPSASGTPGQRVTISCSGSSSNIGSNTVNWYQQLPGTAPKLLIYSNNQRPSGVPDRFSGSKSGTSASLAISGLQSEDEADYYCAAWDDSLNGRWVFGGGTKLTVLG

The first experiment concerns the target T1, control peptide A2E-11/HLA-A*02:01 complex on T2 cells (member of the P19 mixture) (human).
T1 construct: Loaded on T2 cells as part of the mixture of 19 control peptides
Put plainly: flow cytometry, phage on T2 cells. The method, then:
(§1) Individual phage clones from enriched phage display panning pools against PSA146/HLA-A*02:01 complex were incubated in the coated plates. Binding of the phage clones was detected by HRP-conjugated anti-M13 antibodies and developed using HRP substrate. The absorbance was read at 450 nm. […] Then, unique antibody clones were identified through DNA sequencing of ELISA-positive clones. […] T2 cells loaded with different peptides and β2M were first stained with purified scFv phage clones, followed by staining with a mouse anti-M13 mAb, and finally R-PE conjugated horse anti-mouse IgG from Vector Labs. Each step of the staining was performed for between 30-60 minutes on ice and the cells were washed twice between stainings. All 16 clones recognized PSA146-loaded T2 cells specifically. FIG. 3 provides examples of PSA146/HLA-A*02:01 specific phage clone binding to peptide-loaded T2 cells through FACS.
(A flow cytometer gives signals particle by particle.)
On to B1, for which the binding result is reported as “no binding”.

In the case of B2, the binding result was “no binding”.

With B3, the binding result is listed as “no binding”.

The target of another experiment is T2, control peptide A2E-9/HLA-A*02:01 complex on T2 cells (member of the P19 mixture) (human).
T2 construct: Loaded on T2 cells as part of the mixture of 19 control peptides
Briefly: flow cytometry, phage on T2 cells. The method, then:
as §1
Take B1: the binding result is recorded as “no binding”.

Turning to B2, the binding result was “no binding”.

For B3, the binding result is “no binding”.

For a further experiment, the target named is T3, control peptide A2E-8/HLA-A*02:01 complex on T2 cells (member of the P19 mixture) (human).
T3 construct: Loaded on T2 cells as part of the mixture of 19 control peptides
Briefly: flow cytometry, phage on T2 cells. The method, then: as §1
In the case of B1, the binding result is listed as “no binding”.

Turning to B2, the binding result is “no binding”.

For the molecule B3, the binding result is given as “no binding”.

Another experiment has as its target T4, control peptide A2E-14/HLA-A*02:01 complex on T2 cells (member of the P19 mixture) (human).
T4 construct: Loaded on T2 cells as part of the mixture of 19 control peptides
Briefly: flow cytometry, phage on T2 cells. The method, then:
as §1
For the molecule B1, the binding result is reported as “no binding”.

For the molecule B2, the binding result is listed as “no binding”.

For the molecule B3, the binding result is recorded as “no binding”.

A further experiment concerns the target T5, control peptide A2E-21/HLA-A*02:01 complex on T2 cells (member of the P19 mixture) (human).
T5 construct: Loaded on T2 cells as part of the mixture of 19 control peptides
Briefly: flow cytometry, phage on T2 cells. The method, then: as §1
Turning to B1, the binding result is reported as “no binding”.

For the molecule B2, the binding result is recorded as “no binding”.

With B3, the binding result is recorded as “no binding”.

A further experiment deals with T6, control peptide A2E-2/HLA-A*02:01 complex on T2 cells (member of the P19 mixture) (human).
T6 construct: Loaded on T2 cells as part of the mixture of 19 control peptides
Put plainly: flow cytometry, phage on T2 cells. The method, then:
as §1
As for B1, the binding result was “no binding”.

In the case of B2, the binding result is reported as “no binding”.

As to B3, the binding result was “no binding”.

The target of another experiment is T7, control peptide A2E-6/HLA-A*02:01 complex on T2 cells (member of the P19 mixture) (human).
T7 construct: Loaded on T2 cells as part of the mixture of 19 control peptides
Briefly: flow cytometry, phage on T2 cells. How it is done:
as §1
B1: the binding result is “no binding”.

For the molecule B2, the binding result is “no binding”.

As for B3, the binding result is reported as “no binding”.

The target of a further experiment is T8, control peptide A2E-10/HLA-A*02:01 complex on T2 cells (member of the P19 mixture) (human).
T8 construct: Loaded on T2 cells as part of the mixture of 19 control peptides
Put plainly: flow cytometry, phage on T2 cells. How it is done:
as §1
In the case of B1, the binding result is “no binding”.

B2: the binding result is “no binding”.

For B3, the binding result is “no binding”.

Another experiment has as its target T9, control peptide A2E-4/HLA-A*02:01 complex on T2 cells (member of the P19 mixture) (human).
T9 construct: Loaded on T2 cells as part of the mixture of 19 control peptides
Briefly: flow cytometry, phage on T2 cells. The method, then: as §1
With B1, the binding result was “no binding”.

In the case of B2, the binding result is listed as “no binding”.

Consider B3, for which the binding result was “no binding”.

Another experiment has as its target T10, control peptide A2E-19/HLA-A*02:01 complex on T2 cells (member of the P19 mixture) (human).
T10 construct: Loaded on T2 cells as part of the mixture of 19 control peptides
Put plainly: flow cytometry, phage on T2 cells. How it is done: as §1
As to B1, the binding result is “no binding”.

For B2, the binding result is reported as “no binding”.

For B3, the binding result is on record as “no binding”.

The target in a further experiment is T11, control peptide A2E-7/HLA-A*02:01 complex on T2 cells (member of the P19 mixture) (human).
T11 construct: Loaded on T2 cells as part of the mixture of 19 control peptides
Briefly: flow cytometry, phage on T2 cells. The method, then:
as §1
Regarding B1, the binding result was “no binding”.

Consider B2, for which the binding result was “no binding”.

As for B3, the binding result was “no binding”.

For a further experiment, the target named is T12, control peptide A2E-3/HLA-A*02:01 complex on T2 cells (member of the P19 mixture) (human).
T12 construct: Loaded on T2 cells as part of the mixture of 19 control peptides
Put plainly: flow cytometry, phage on T2 cells. How it is done: as §1
For the molecule B1, the binding result is “no binding”.

As to B2, the binding result is given as “no binding”.

For B3, the binding result is “no binding”.

The next experiment addresses T13, control peptide A2E-15/HLA-A*02:01 complex on T2 cells (member of the P19 mixture) (human).
T13 construct: Loaded on T2 cells as part of the mixture of 19 control peptides
Put plainly: flow cytometry, phage on T2 cells. The method, then: as §1
With B1, the binding result is listed as “no binding”.

With B2, the binding result is listed as “no binding”.

Take B3: the binding result is “no binding”.

A further experiment deals with T14, control peptide A2E-17/HLA-A*02:01 complex on T2 cells (member of the P19 mixture) (human).
T14 construct: Loaded on T2 cells as part of the mixture of 19 control peptides
Put plainly: flow cytometry, phage on T2 cells. How it is done:
as §1
Consider B1, for which the binding result is recorded as “no binding”.

Take B2: the binding result was “no binding”.

As for B3, the binding result is recorded as “no binding”.

For the next experiment, the target named is T15, control peptide A2E-1/HLA-A*02:01 complex on T2 cells (member of the P19 mixture) (human).
T15 construct: Loaded on T2 cells as part of the mixture of 19 control peptides
Briefly: flow cytometry, phage on T2 cells. How it is done:
as §1
In the case of B1, the binding result is listed as “no binding”.

As to B2, the binding result is given as “no binding”.

For B3, the binding result is on record as “no binding”.

The next experiment concerns the target T16, control peptide A2E-13/HLA-A*02:01 complex on T2 cells (member of the P19 mixture) (human).
T16 construct: Loaded on T2 cells as part of the mixture of 19 control peptides
Briefly: flow cytometry, phage on T2 cells. The method, then: as §1
Turning to B1, the binding result is “no binding”.

Consider B2, for which the binding result is on record as “no binding”.

Regarding B3, the binding result is “no binding”.

For another experiment, the target named is T17, control peptide A2E-23/HLA-A*02:01 complex on T2 cells (member of the P19 mixture) (human).
T17 construct: Loaded on T2 cells as part of the mixture of 19 control peptides
Briefly: flow cytometry, phage on T2 cells. The method, then:
as §1
Consider B1, for which the binding result is reported as “no binding”.

On to B2, for which the binding result is recorded as “no binding”.

As to B3, the binding result is “no binding”.

For another experiment, the target named is T18, control peptide A2E-16/HLA-A*02:01 complex on T2 cells (member of the P19 mixture) (human).
T18 construct: Loaded on T2 cells as part of the mixture of 19 control peptides
Put plainly: flow cytometry, phage on T2 cells. The method, then: as §1
On to B1, for which the binding result is reported as “no binding”.

For B2, the binding result is “no binding”.

In the case of B3, the binding result is “no binding”.

The target in a further experiment is T19, control peptide A2E-5/HLA-A*02:01 complex on T2 cells (member of the P19 mixture) (human).
T19 construct: Loaded on T2 cells as part of the mixture of 19 control peptides
Put plainly: flow cytometry, phage on T2 cells. The method, then:
as §1
Consider B1, for which the binding result is reported as “no binding”.

On to B2, for which the binding result is “no binding”.

In the case of B3, the binding result is reported as “no binding”.

The target of a further experiment is T20, HLA-A*02:01 on T2 cells with no peptide loaded (human).
T20 construct: TAP-deficient T2 cells, no peptide loaded from outside; also called T2 cells without peptide loading
Put plainly: flow cytometry, phage on T2 cells, anti-M13 + R-PE anti-mouse IgG. How it is done: as §1
Take B1: the binding result was “no binding”.

B2: the binding result was “no binding”.

Take B3: the binding result is reported as “no binding”.

For the next experiment, the target named is T21, PSA 146-154 peptide/HLA-A*02:01 complex on the cell surface (human).
T21 construct: also called PSA146/HLA-A*02:01; PSA146-loaded T2 cells
The description is as above. How it is done: as §1
For the molecule B1, the binding result is given as “binds”.

B2: the binding result is reported as “binds”.

On to B3, for which the binding result was “binds”.

For the next experiment, the target named is T22, Bio-P19 member A2E-19 (chain 2 carries a C-terminal BirA substrate peptide (BSP), enzymatically biotinylated; the BSP letters are not given in the patent and are left out).
T22 construct: also called biotinylated control peptide A2E-19/HLA-A*02:01 monomer
Briefly: phage ELISA, streptavidin plate, anti-M13-HRP. The method, then:
as §1
On the technique in general: An ELISA detects its analyte on a solid surface through an enzyme-linked reagent.
As for B1, the binding result is “no binding”.

With B2, the binding result is recorded as “no binding”.

On to B3, for which the binding result is listed as “no binding”.

The next experiment addresses T23, Bio-P19 member A2E-4 (chain 2 carries a C-terminal BirA substrate peptide (BSP), enzymatically biotinylated; the BSP letters are not given in the patent and are left out).
T23 construct: also called biotinylated control peptide A2E-4/HLA-A*02:01 monomer
Briefly: phage ELISA, streptavidin plate, anti-M13-HRP. The method, then: as §1
As to B1, the binding result was “no binding”.

B2: the binding result is “no binding”.

In the case of B3, the binding result is on record as “no binding”.

The target of a further experiment is T24, Bio-P19 member A2E-9 (chain 2 (heavy): C-terminal BirA substrate peptide, biotinylated there by BirA; tag letters not given, left out).
T24 construct: also called biotinylated control peptide A2E-9/HLA-A*02:01 monomer; not shown: BirA substrate peptide (BSP) tag at the C-terminus of the heavy chain
Briefly: phage ELISA, streptavidin plate, anti-M13-HRP. The method, then: as §1
With B1, the binding result is given as “no binding”.

Take B2: the binding result was “no binding”.

B3: the binding result is given as “no binding”.
